Results as given in patent US20230235040A1 (ALMIRALL S A, published 2023).
Where a chain is given by its changes, count along the chain named.

B1: mAb4.0 recombinant human IgG1 (antibody, V domains shown)
VH: QLQLQESGPGLVKPSETLSLTCTVSGGSIGSRSYYWGWIRQPPGKGLEWIGSIHYSGTTYYNPSLKSRVTISVDTSKNQFSLKLSSVTAADTAVYYCARVAPSYPRVFDYWGQGTLVTVSS
VL: QSVLTQPPSVSGAPGQRVTISCTGSSSNIGAGYDVHWYQQLPGTAPKLLIYGNRNRPSGVPDRFSGSKSGTSASLAITGLQAEDEADYYCQSYDYSLRVYVFGGGTKLTVL
B2: mAb3.0 recombinant human IgG1 (antibody, V domains shown)
VH: QLQLQESGPGLVKPSETLSLTCTVSGGSISSTSYYWGWIRQPPGKGLEWIGSIHYSGNTYYNPSLKSRVTISVDTSKNQFSLKLSSVTAADTAVYYCARVHYGGYIPRRFDHWGQGTLVTVSS
VL: B1 VL with R54T, V99G
B3: mAb5.0 recombinant human IgG1 (antibody, V domains shown)
VH: EVQLLESGGGLVQPGGSLRLSCAASGFTFSTYAMSWVRQAPGKGLEWVSGISGGSGYTYYADSVKGRFTISRDNSKNTLYLQMNSLRAEDTAVYYCARVVTYRDPPASFDYWGQGTLVTVSS
VL: B1 VL with G32H, R54D, R98K, V99A
B4: mAb1.0 recombinant human IgG1 (antibody, V domains shown)
VH: QVQLVESGGGVVQPGRSLRLSCAASGFSFSAYAMHWVRQAPGKGLEWVAVISYDGTNEYYADSVKGRFTISRDNSKNTLYLQMNSLRAEDTAVYYCARGIRIFTSYFDSWGQGTLVTVSS
VL: B1 VL with G32H, G52S, R54N, V99G
B5: mAb6_2.5 Fab (Fab, V domains shown)
VH: ELQLQESGPGLVKPSETLSLTCTVSGGSITASNYYWGWIRQPPGKGLEWIGSIDYTGSTYYEPSLKSRVTISVDTSKNQFSLKLSSVTAADTAVYYCATGSYYETYLGFDVWGQGTLVTVSS
VL: B1 VL with Q1E, G32H, R54D, R98S, V99G
notes: Recombinant Fab with 8xHis tag (Expi293F)
B6: mAb6 Fab (Fab, V domains shown)
VH: B5 VH with A31S, E62N, T99R, S101K
VL: B1 VL with Q1E, R54T, Y95I, R98S, V99G, Y100W
B7: mAb6_2.7 Fab (Fab, V domains shown)
VH: B5 VH with Y34T, E62N, S101K
VL: B1 VL with Q1E, G32H, R54D, R98S, V99G
notes: as for B5
B8: mAb6_2.8 Fab (Fab, V domains shown)
VH: B5 VH with E62N, T99S, S101K
VL: B1 VL with Q1E, G32H, R54D, R98S, V99G
notes: as for B5
B9: mAb2.8 Fab (Fab, V domains shown)
VH: ELQLQESGPGLVKPSETLSLTCTVSGGSISDSSYYWGWIRQPPGKGLEWIGSIYYTGETYYAPSLKSRVTISVDTSKNQFSLKLSSVTAADTAVYYCARLRYGVGVPRYFDPWGQGTLVTVSS
VL: B1 VL with Q1E, G32H, R54D, R98S, V99G
notes: as for B5
B10: mAb2.12 Fab (Fab, V domains shown)
VH: B9 VH with D31E, L100V, R101K
VL: B1 VL with Q1E, G32H, R54D, R98S, V99G
notes: as for B5
B11: mAb2.9 Fab (Fab, V domains shown)
VH: B9 VH with L100V, R101K
VL: B1 VL with Q1E, G32H, R54D, R98S, V99G
notes: as for B5
B12: mAb6_2.10 Fab (Fab, V domains shown)
VH: B5 VH with A31S, E62Q, T99R, S101N
VL: B1 VL with Q1E, G32H, R54D, R98S, V99G
notes: as for B5
B13: mAb6_2.6 Fab (Fab, V domains shown)
VH: B5 VH with S101N
VL: B1 VL with Q1E, G32H, R54D, R98S, V99G
notes: as for B5
B14: mAb6_2.9 Fab (Fab, V domains shown)
VH: B5 VH with A31S, E62N, S101K
VL: B1 VL with Q1E, G32H, R54D, R98S, V99G
notes: as for B5
B15: mAb2.6 Fab (phage-displayed) (Fab, V domains shown)
VH: B9 VH with D31T, Y35H, E58N, A62M, A98V, L100V
VL: B1 VL with Q1E, G32H, R54D, R98S, V99G
B16: mAb2.1 Fab (phage-displayed) (Fab, V domains shown)
VH: B9 VH with E58N, A62N, P63S, L100V
VL: B1 VL with Q1E, G32H, R54D, R98S, V99G
B17: mAb2.5 Fab (phage-displayed) (Fab, V domains shown)
VH: B9 VH with D31E, E58N, A62L, L100V
VL: B1 VL with Q1E, G32H, R54D, R98S, V99G
B18: mAb2.2 Fab (phage-displayed) (Fab, V domains shown)
VH: B9 VH with D31E, E58N, A62N, R99G, L100V
VL: B1 VL with Q1E, G32H, R54D, R98S, V99G
B19: mAb2.4 Fab (phage-displayed) (Fab, V domains shown)
VH: B9 VH with D31N, E58N, A62L, L100V
VL: B1 VL with Q1E, G32H, R54D, R98S, V99G
B20: mAb2.3 Fab (phage-displayed) (Fab, V domains shown)
VH: B9 VH with D31T, Y34D, E58N, A62L, A98S, L100V
VL: B1 VL with Q1E, G32H, R54D, R98S, V99G
B21: mAb2.7 Fab (phage-displayed) (Fab, V domains shown)
VH: B9 VH with D31R, E58N, A62W, A98T, L100V
VL: B1 VL with Q1E, G32H, R54D, R98S, V99G

molecular target: T1, hu-IL-36α (human IL-36α, N-terminally truncated active form K6-F158) (human, UniProt Q9UHA7 6-158); assay: cell-based or functional assay
T1 sequence: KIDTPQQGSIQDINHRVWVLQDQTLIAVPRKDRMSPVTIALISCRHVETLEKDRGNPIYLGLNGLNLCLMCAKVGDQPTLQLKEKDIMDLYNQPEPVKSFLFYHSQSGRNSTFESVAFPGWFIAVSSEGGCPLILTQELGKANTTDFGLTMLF

How did the “IC50, HEK-Blue IL-36R SEAP reporter assay” value turn out when B1 was run?
The value was 16 nM.

Which “IC50, HEK-Blue IL-36R SEAP reporter assay” value does the source give for B2 here?
The value was 90 nM.

Which “IC50, HEK-Blue IL-36R SEAP reporter assay” value does the source give for B3 here?
Its value is 95 nM.

With B4 as the binder, how does the “IC50, HEK-Blue IL-36R SEAP reporter assay” value read?
Its value is 43 nM.

molecular target: T2, hu-IL-36γ (human IL-36γ, N-terminally truncated active form S18-D169) (human, UniProt Q9NZH8 18-169); assay: cell-based or functional assay
T2 sequence: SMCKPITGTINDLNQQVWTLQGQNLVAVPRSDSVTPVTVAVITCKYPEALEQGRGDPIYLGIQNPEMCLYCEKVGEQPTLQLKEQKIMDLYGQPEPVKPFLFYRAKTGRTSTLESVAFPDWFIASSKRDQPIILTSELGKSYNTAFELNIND

Which “IC50, HEK-Blue IL-36R SEAP reporter assay” value does the source give for B1 here?
Its value is 52 nM.

With B2 as the binder, how does the “IC50, HEK-Blue IL-36R SEAP reporter assay” value read?
The value was 30 nM.

With B3 as the binder, how does the “IC50, HEK-Blue IL-36R SEAP reporter assay” value read?
The value was 142 nM.

How did the “IC50, HEK-Blue IL-36R SEAP reporter assay” value turn out when B4 was run?
The value was 5.3 nM.

Molecular target: T3, hu-IL-36β (human IL-36β, N-terminally truncated active form R5-E157) (human)
T3 chain: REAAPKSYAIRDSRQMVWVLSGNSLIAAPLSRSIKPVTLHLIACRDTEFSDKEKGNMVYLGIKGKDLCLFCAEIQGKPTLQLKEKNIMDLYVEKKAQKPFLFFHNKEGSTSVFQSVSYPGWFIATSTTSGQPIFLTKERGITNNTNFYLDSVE
Assay: cell-based or functional assay

For B5, which “IC50, IL-36-stimulated IL-8 secretion by HaCat cells” value (from here on “IC50 … by HaCat cells”) is on record?
The value was 0.2 nM.

Which “IC50 … by HaCat cells” value does the source give for B6 here?
Its value is 0.15 nM.

B7 was tested. Which “IC50 … by HaCat cells” value did it give?
Its value is 0.2 nM.

With B8 as the binder, how does the “IC50 … by HaCat cells” value read?
The value was 0.33 nM.

molecular target: T1, hu-IL-36α (human IL-36α, N-terminally …); assay: SPR (Biacore 8K), biotinylated hu-IL-36 captured on CAP chip, Fab injected, 37°C
Method: (§1) Briefly, a 1:4 dilution of Biotin CAPture Reagent (GE) into HBS-EP buffer (0.01 M HEPES pH 7.4, 0.15 M NaCl, 3 mM EDTA, 0.005% Surfactant P20) was applied to a CAP sensor chip at 2 uL/min flow rate. For kinetics measurements, 3 nM biotinylated human IL-36α and human IL-36γ was captured at 10 uL/min to achieve ˜50 response units in the second flow cell (FC2). FC1 was kept as a reference. […] The sensorgram was recorded and subject to reference and buffer subtraction before evaluating by BIACORE® 8K Evaluation Software (version 1.1.1.7442). Association rates (kₒₙ) and dissociation rates (koff) were calculated using a simple one-to-one Langmuir binding model.

What does the source list for B9?
Kd: 0.14 nM; koff: 0.000254 s⁻¹; kon: 1.83e+06 M⁻¹ s⁻¹

Which Kd does the source give for B10 here?
The Kd was 0.16 nM.

What about the koff of the same binder?
The koff was 0.000277 s⁻¹.

And the kon?
The kon was 1.7e+06 M⁻¹ s⁻¹.

With B11 as the binder, how does the Kd read?
The Kd was 0.12 nM.

And the koff?
Its koff is 0.00026 s⁻¹.

What about the kon of the same binder?
Its kon is 2.19e+06 M⁻¹ s⁻¹.

molecular target: T2, hu-IL-36γ (human IL-36γ, N-terminally …); assay: as above
Method: as §1

For B9, which Kd is on record?
The Kd was 0.17 nM.

What about the koff of the same binder?
The koff was 0.000301 s⁻¹.

What about the kon of the same binder?
Its kon is 1.8e+06 M⁻¹ s⁻¹.

B10 was tested. Which Kd did it give?
The Kd was 0.28 nM.

What about the koff of the same binder?
The koff was 0.000503 s⁻¹.

What about the kon of the same binder?
The kon was 1.81e+06 M⁻¹ s⁻¹.

With B11 as the binder, how does the Kd read?
The Kd was 0.24 nM.

What about the koff of the same binder?
The koff was 0.000565 s⁻¹.

And the kon?
The kon was 2.4e+06 M⁻¹ s⁻¹.

Molecular target: T3, hu-IL-36β (human IL-36β, N-terminally …)
Assay: SPR (Biacore 8K), biotinylated hu-IL-36β captured on CAP chip, Fab injected, 37°C
Method: as §1, with “measurements, 6” for “measurements, 3”, “human IL-36β” for “human IL-36α and human IL-36γ”

Which results are given for B5?
Kd: 0.66 nM; koff: 0.000476 s⁻¹; kon: 717000 M⁻¹ s⁻¹

What does the source list for B12?
Kd: 2.47 nM; koff: 0.00103 s⁻¹; kon: 415000 M⁻¹ s⁻¹

B13 was tested. Which Kd did it give?
Its Kd is 0.82 nM.

And the koff?
The koff was 0.000705 s⁻¹.

And the kon?
The kon was 856000 M⁻¹ s⁻¹.

What does the source list for B14?
Kd: 1.37 nM; koff: 0.000411 s⁻¹; kon: 299000 M⁻¹ s⁻¹

Which Kd does the source give for B7 here?
Its Kd is 0.61 nM.

And the koff?
The koff was 0.00018 s⁻¹.

And the kon?
Its kon is 297000 M⁻¹ s⁻¹.

With B8 as the binder, how does the Kd read?
Its Kd is 1.08 nM.

What about the koff of the same binder?
Its koff is 0.000343 s⁻¹.

What about the kon of the same binder?
The kon was 317000 M⁻¹ s⁻¹.

molecular target: T1, hu-IL-36α (human IL-36α, N-terminally …); assay: phage competition ELISA: Fab on phage, soluble hu-IL-36α titrated against coated hu-IL-36α
Method: (§2) Selected phages with top binding signal were purified to perform phage competition ELISA. The optimal phage concentration was incubated with serially-diluted human IL-36α or human IL-36γ in ELISA buffer in NUNC F plate for two hours. 80 μL of the mixture was transferred to human IL-36α or human IL-36γ coated wells for 15 min to capture unbound phage. The plate was washed with wash buffer (0.05% TWEEN®20 in PBS), and HRP-conjugated anti-M13 antibody (Sino biological, Cat #11973-MM05-H-50) was added in ELISA buffer for 30 min. The plates were washed and developed as described above. The absorbance at 450 nm was plotted as a function of antigen concentration in solution to determine phage IC50.

How did the IC50 turn out when B15 was run?
Its IC50 is 1.62 nM.

B16 was tested. Which IC50 did it give?
Its IC50 is 1.03 nM.

How did the IC50 turn out when B17 was run?
The IC50 was 0.77 nM.

Which IC50 does the source give for B18 here?
The IC50 was 0.75 nM.

How did the IC50 turn out when B19 was run?
Its IC50 is 0.68 nM.

For B20, which IC50 is on record?
The IC50 was 0.82 nM.

B21 was tested. Which IC50 did it give?
Its IC50 is 1.2 nM.

molecular target: T2, hu-IL-36γ (human IL-36γ, N-terminally …); assay: phage competition ELISA: Fab on phage, soluble hu-IL-36γ titrated against coated hu-IL-36γ
Method: as §2

B15 was tested. Which IC50 did it give?
Its IC50 is 1.99 nM.

How did the IC50 turn out when B16 was run?
Its IC50 is 4.86 nM.

How did the IC50 turn out when B17 was run?
Its IC50 is 1.88 nM.

B18 was tested. Which IC50 did it give?
Its IC50 is 3.79 nM.

B19 was tested. Which IC50 did it give?
Its IC50 is 1.52 nM.

Which IC50 does the source give for B20 here?
Its IC50 is 2.39 nM.

For B21, which IC50 is on record?
Its IC50 is 1.53 nM.
